Experimental data reported in patent US20250277018A1 (INHIBRX BIOSCIENCES, published 2025).

T1: Rat serum albumin (rat)
T1 chain: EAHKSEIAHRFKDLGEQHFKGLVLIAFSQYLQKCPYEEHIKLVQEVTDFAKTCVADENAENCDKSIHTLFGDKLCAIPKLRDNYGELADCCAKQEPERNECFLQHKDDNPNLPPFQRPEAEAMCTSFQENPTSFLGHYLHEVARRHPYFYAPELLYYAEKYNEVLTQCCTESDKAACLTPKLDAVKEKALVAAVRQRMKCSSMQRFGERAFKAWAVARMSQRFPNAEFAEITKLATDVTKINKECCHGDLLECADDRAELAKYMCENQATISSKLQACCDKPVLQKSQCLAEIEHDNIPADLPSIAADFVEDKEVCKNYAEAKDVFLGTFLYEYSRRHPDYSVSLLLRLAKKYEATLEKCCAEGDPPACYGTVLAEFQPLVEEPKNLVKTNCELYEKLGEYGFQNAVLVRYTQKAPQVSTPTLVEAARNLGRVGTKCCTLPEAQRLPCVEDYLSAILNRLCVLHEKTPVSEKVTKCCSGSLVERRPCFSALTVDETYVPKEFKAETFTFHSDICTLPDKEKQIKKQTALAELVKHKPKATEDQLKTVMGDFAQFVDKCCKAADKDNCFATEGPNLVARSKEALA

T2: Cynomolgus monkey serum albumin (cynomolgus monkey)
T2 chain: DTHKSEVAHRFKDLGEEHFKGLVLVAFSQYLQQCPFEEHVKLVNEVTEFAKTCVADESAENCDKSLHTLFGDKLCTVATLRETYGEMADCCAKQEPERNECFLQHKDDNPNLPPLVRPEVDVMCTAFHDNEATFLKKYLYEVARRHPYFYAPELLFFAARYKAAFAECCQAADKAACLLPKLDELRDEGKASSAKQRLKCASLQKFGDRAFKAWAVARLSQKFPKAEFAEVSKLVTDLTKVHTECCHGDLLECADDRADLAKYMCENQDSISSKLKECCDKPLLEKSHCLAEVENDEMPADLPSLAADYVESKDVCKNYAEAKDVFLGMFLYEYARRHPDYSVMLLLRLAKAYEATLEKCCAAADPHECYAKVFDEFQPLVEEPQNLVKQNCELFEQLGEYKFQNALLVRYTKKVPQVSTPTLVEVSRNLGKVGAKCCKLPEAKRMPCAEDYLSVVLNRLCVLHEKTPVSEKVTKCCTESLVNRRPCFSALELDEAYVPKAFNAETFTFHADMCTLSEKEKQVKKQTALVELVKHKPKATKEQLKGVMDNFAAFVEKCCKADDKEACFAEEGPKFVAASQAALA

B1: cx5009, hz4A01v51 VHH-hIgG1-xELL-NNT-Fc (VHH)
VHH: EVQLVESGGGEVQPGGSLRLSCAASGFTFSTSGMVWVRQAPGKGLEWVSTISDDARITVYAESVKGRFTISRDNAKNTVYLQMNSLRAEDTAVYYCATYRAGSRIGSYEDYYRGQGTLVTVKP
notes: also called Hz4A01v51-NNT-hFc; 4A01v51-NNT-hFc
B2: cx12584 (VHH)
chain: GGGGDKTHTCPPCPAPGGPSVFLFPPKPKDTLMISRTPEVTCVVVDVSHEDPEVKFNWYVDGVEVHNAKTKPREEQYNSTYRVVSVLTVLHQDWLNGKEYKCKVSNKALPAPIEKTISKAKGQPREPQVYTLPPSRDELTKNQVSLTCLVKGFYPSDIAVEWESNGQPENNYKTTPPVLDSDGSFFLYSKLTVDKSRWQQGNVFSCSVMHEALHNHYTQKSLSLSPGGGSGGGSGGGSEVQLVESGGGEVQPGGSLRLSCAASGFTFSTSGMVWVRQAPGKGLEWVSTISDDARITVYAESVKGRFTISRDNAKNTVYLQMNSLRAEDTAVYYCATYRAGSRIGSYEDYYRGQGTLVTVKP
notes: Homodimer; also called Fc Region-GS12-VHH
B3: cx12583 (VHH)
chain: GGGGDKTHTCPPCPAPGGPSVFLFPPKPKDTLMISRTPEVTCVVVDVSHEDPEVKFNWYVDGVEVHNAKTKPREEQYNSTYRVVSVLTVLHQDWLNGKEYKCKVSNKALPAPIEKTISKAKGQPREPQVYTLPPSRDELTKNQVSLTCLVKGFYPSDIAVEWESNGQPENNYKTTPPVLDSDGSFFLYSKLTVDKSRWQQGNVFSCSVMHEALHNHYTQKSLSLSPGSGGGSEVQLVESGGGEVQPGGSLRLSCAASGFTFSTSGMVWVRQAPGKGLEWVSTISDDARITVYAESVKGRFTISRDNAKNTVYLQMNSLRAEDTAVYYCATYRAGSRIGSYEDYYRGQGTLVTVKP
notes: Homodimer; also called Fc Region-GS6-VHH

How the values were obtained:
Rat serum albumin [1] = biological target: T1, Rat serum albumin; assay: ELISA, albumin coated, monomeric sdAb titrated
Human serum albumin [2] = biological target: Human serum albumin (human); assay: ELISA, albumin coated, monomeric sdAb titrated
Murine serum albumin [3] = biological target: Murine serum albumin (mouse); assay: ELISA, albumin coated, monomeric sdAb titrated
Chain of Murine serum albumin (mouse) (chain, as listed by the source): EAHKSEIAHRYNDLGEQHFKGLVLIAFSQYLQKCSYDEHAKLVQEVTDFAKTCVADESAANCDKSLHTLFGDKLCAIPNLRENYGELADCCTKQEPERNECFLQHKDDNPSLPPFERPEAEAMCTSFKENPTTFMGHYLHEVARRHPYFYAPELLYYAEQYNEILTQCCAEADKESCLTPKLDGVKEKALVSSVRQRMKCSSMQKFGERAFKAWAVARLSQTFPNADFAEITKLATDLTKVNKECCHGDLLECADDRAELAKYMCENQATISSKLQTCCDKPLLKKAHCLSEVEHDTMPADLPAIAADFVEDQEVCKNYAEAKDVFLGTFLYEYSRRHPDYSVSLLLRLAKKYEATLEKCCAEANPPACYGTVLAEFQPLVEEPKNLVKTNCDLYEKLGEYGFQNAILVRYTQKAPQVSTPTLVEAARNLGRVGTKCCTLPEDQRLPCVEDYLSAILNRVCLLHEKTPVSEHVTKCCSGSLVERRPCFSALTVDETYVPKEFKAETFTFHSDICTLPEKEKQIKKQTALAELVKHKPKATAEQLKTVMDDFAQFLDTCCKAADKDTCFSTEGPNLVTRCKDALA

[4] = biological target: T2, Cynomolgus monkey serum albumin; assay: ELISA, albumin coated, monomeric sdAb titrated
Rat serum albumin [5] = biological target: T1, Rat serum albumin; assay: ELISA on coated recombinant albumin, pH 7.4, anti-human IgG1 HRP; apparent affinity
Human serum albumin [6] = biological target: Human serum albumin (human); assay: as above
Murine serum albumin [7] = biological target: Murine serum albumin (mouse); assay: as above
[8] = biological target: T2, Cynomolgus monkey serum albumin; assay: as above
IL-4R = biological target: T3, IL-4R (UniProt P24394 26-232, limits assumed); assay: ELISA on coated IL-4R
T3 construct: also called second target
Protocol: The plates were washed 3× times in 0.05% PBST (150 μL/well) and then blocked with Casein in 0.05% PBST (200 μL/well) for 2 hours at RT. The plates were washed 3× times in 0.05% PBST, and 100 μL of titrated test articles in 0.05% PBST were added to the wells of the plate (starting 100 nM, 1:3 dilutions, 11-point titration) and incubated at 4° C. for 1 hour. […] Plates were then washed again before addition of TMB substrate (100 μL/well) that was allowed to reach RT before addition to the plate. The HRP-TMB reaction was allowed to develop for approximately 10 minutes, then TMB stop buffer was added (100 μL/well) and the absorbance was measured at 450 nm on a plate reader with absorbance at 650 nm subtracted (Molecular Devices). The data were plotted and analyzed using GraphPad Prism analysis software.

| Binder | Kd (Rat serum albumin [1]) | maximal binding (Rat serum albumin [1]) | Kd (Human serum albumin [2]) | maximal binding (Human serum albumin [2]) | Kd (Murine serum albumin [3]) | maximal binding (Murine serum albumin [3]) | Kd [4] | maximal binding [4] | Kd (Rat serum albumin [5]) | Kd (Human serum albumin [6]) | Kd (Murine serum albumin [7]) | Kd [8] | binding result (IL-4R) |
| --- | --- | --- | --- | --- | --- | --- | --- | --- | --- | --- | --- | --- | --- |
| B1 | < 0.3 nM | > 90% | < 0.3 nM | > 90% | < 0.3 nM | > 90% | < 0.3 nM | > 90% | ~0.2 nM | ~0.2 nM | ~0.2 nM | ~0.2 nM |  |
| B2 |  |  |  |  |  |  |  |  |  |  |  |  | no binding (tested: 100 nM (top of titration)) |
| B3 |  |  |  |  |  |  |  |  |  |  |  |  | no binding (tested: 100 nM (top of titration)) |
